Results as given in paper PMC7419483, “Phenolic metabolism in the hornwort Anthoceros agrestis: 4-coumarate CoA ligase and 4-hydroxybenzoate CoA ligase” (Plant Cell Reports, 2020).
Each block holds one molecule with its values, some of them ahead of it.

How the values were obtained:
Aa4CL_1 = Aa4CL_1 (Anthoceros agrestis, UniProt A0A6M6A6J9); assay: spectrophotometric CoA-ester formation, Michaelis-Menten; format: biochemical; details: pH 7.0 potassium phosphate, 40 °C
From the text: spectrophotometric CoA-ester formation, Michaelis-Menten on Aa4CL_1

purified protein [1] = substrate: Nc1ncnc2c1ncn2[C@@H]1O[C@H](COP(=O)(O)OP(=O)(O)OP(=O)(O)O)[C@@H](O)[C@H]1O; assay: purified protein; details: pH 7.0 potassium phosphate, 45 °C, co-substrates 4-hydroxybenzoic acid and CoA, MgCl2, 1 mM DTT
purified protein [2] = substrate: O=C(O)c1ccc(O)cc1; assay: purified protein; details: apparent Km, pH 7.0 potassium phosphate, 45 °C, standard assay […] ATP, […] MgCl2, 500 µM CoA, 1 mM DTT
purified protein [3] = substrate: CC(C)(COP(=O)(O)OP(=O)(O)OC[C@H]1O[C@@H](n2cnc3c(N)ncnc32)[C@H](O)[C@@H]1OP(=O)(O)O)[C@@H](O)C(=O)NCCC(=O)NCCS; assay: purified protein; format: biochemical, Anthoceros agrestis; details: pH 7.0 potassium phosphate, 45 °C, co-substrates 4-hydroxybenzoic acid and ATP, MgCl2, 1 mM DTT
[4] = standard assay […] ATP, […] MgCl2, 500 µM CoA, 1 mM DTT
[5] = MgCl2, hydroxycinnamic acid co-substrate not stated

Chain of Aa4CL_1 (A0A6M6A6J9 entry or part of it): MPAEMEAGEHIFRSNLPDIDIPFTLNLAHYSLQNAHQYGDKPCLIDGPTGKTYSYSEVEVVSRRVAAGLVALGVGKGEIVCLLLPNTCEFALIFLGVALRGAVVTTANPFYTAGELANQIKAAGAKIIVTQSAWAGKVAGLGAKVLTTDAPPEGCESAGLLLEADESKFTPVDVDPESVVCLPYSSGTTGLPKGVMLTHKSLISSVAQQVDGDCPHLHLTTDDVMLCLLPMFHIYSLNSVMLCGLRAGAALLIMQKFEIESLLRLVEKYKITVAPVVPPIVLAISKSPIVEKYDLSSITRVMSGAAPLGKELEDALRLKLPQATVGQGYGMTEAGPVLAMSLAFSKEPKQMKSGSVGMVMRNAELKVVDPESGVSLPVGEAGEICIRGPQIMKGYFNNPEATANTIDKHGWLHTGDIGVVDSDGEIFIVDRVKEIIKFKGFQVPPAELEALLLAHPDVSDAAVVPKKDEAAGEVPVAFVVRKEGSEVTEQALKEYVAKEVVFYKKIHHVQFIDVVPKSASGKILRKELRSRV

Molecule: O=C(O)/C=C/c1ccccc1 [cinnamic acid]
- Km (Aa4CL_1; [4]): 218 ± 74.7 µM

Molecule: Nc1ncnc2c1ncn2[C@@H]1O[C@H](COP(=O)(O)OP(=O)(O)OP(=O)(O)O)[C@@H](O)[C@H]1O [ATP]
- Km (Aa4CL_1; [5]): 227 ± 31.8 µM

B1: Aa4HBCL (Anthoceros agrestis) (protein)
chain: MASLSEPEHIFRSSLPAAAIPNVTVPEYILLNAIRPEDEHRVAVVDASDERQYTYGQTRILVKNVAAGLRNLLGIRKGDVVFVLLPNTAEYFILVLGIMWAGGVYSGGNPYAHPGEIEKQIQDSEAKVVVTDSTYFEKVKQFAHQLPILLTPVSSAAPTDKSVTPNPEGSTSVQRLLEYDGSEYVPPEPISQDDLCALPYSSGTTGLSKGVKLTHRNLLANTTRTCPIPAVPPTPAQLASVKRYVVLGLLPFFHIYGTTGICCSTMRYQGTLVVLPRYDLRLMLAALIKYEVTFTPLVPPIILQMVKSPIVNEFDLSKLKLEGVMTAAAPLPPDIQKAFEARFPGVELRQAYGLTEYSCITLSHVPLGYPRGNAKKGSVGFLIPGTEMKILDPDTGKSLPANRAGEICVRGESTMNGYFKNEEATAATIDEQGWLHTGDVGYIDDDGDVFIVERAKELIKYKGFQVPPAELEAILVAHPLIADAAVIPIPDDEAGELPAACVVLAPNSHLNEEDVIRYVGAKVASYKKVRHVEFVSSIPKSLSGKTLRRVLKDDILKRLKKTENQLI
- Km (purified protein [1]): 1175.3 ± 135.2 µM
- Vmax (purified protein [1]): 1.4 µmol/min/mg
- kcat (purified protein [1]): 1.6 s⁻¹
- kcat/Km (purified protein [1]): 1300 M⁻¹ s⁻¹
- Km (purified protein [2]): 664.2 ± 1.5 µM
- Vmax (purified protein [2]): 0.99 µmol/min/mg
- kcat (purified protein [2]): 1.1 s⁻¹
- kcat/Km (purified protein [2]): 1700 M⁻¹ s⁻¹
- Km (purified protein [3]): 247.8 ± 19.9 µM
- Vmax (purified protein [3]): 1.95 µmol/min/mg
- kcat (purified protein [3]): 2.2 ± 0.1 s⁻¹
- kcat/Km (purified protein [3]): 8700 M⁻¹ s⁻¹

Second part, the molecule after the results:

- Km (Aa4CL_1; [4]): 61.4 ± 21.9 µM
Molecule: COc1cc(/C=C/C(=O)O)ccc1O [ferulic acid]

- Km (Aa4CL_1; [4]): 12.8 ± 4 µM
Molecule: O=C(O)/C=C/c1ccc(O)cc1 [4-coumaric acid]

- Km (Aa4CL_1; standard assay […] ATP, […] MgCl2, 500 µM CoA, no DTT): 15.5 ± 1.9 µM
Molecule: O=C(O)/C=C/c1ccc(O)c(O)c1 [caffeic acid]

- Km (Aa4CL_1; [4]): 9.9 ± 1.8 µM
Molecule: COc1ccc(/C=C/C(=O)O)cc1O [isoferulic acid]

- Km (Aa4CL_1; [5]): 10.2 ± 0.2 µM
Molecule: CC(C)(COP(=O)(O)OP(=O)(O)OC[C@H]1O[C@@H](n2cnc3c(N)ncnc32)[C@H](O)[C@@H]1OP(=O)(O)O)[C@@H](O)C(=O)NCCC(=O)NCCS [CoA]
